± gives the standard deviation of the averaged measurements.
system: Saccharomyces cerevisiae; experiment: protein stability index of tFT-peptide fusion (C-terminal peptide) (PSI (0-1 scale)); higher = more stable (slower turnover); conditions: genetic background: wild type; temperature: 30 C
Procedure: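 Multiplexed protein stability (MPS) profiling in S. cerevisiae. Random 12-aa peptides (tFT-X12 library) are fused to the C-terminus of a sfGFP-mCherry tandem fluorescent timer, after mCherry and a GGGS linker. Cells are FACS-sorted into 8 mCherry/sfGFP bins and deep-sequenced. The protein stability index (PSI) is the read-weighted bin average, scaled from 0 (unstable) to 1 (stable). Only peptides with >10 reads are reported; cells were grown at 30 °C in SC-His with glucose.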
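Further: PSI is a weighted mean of sequencing reads over stability bins, variants kept only with over 10 reads, mCherry proximal and sfGFP distal, peptide attached via GGGS linker.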

Sequence | protein stability index
EGRDDIVEKKRR | 0.66 ± 0.063
EGREGQRHRRVI | 0.669 ± 0.01
EGREGVFGEGRA | 0.703 ± 0.031
EGRKTLWEGNRG | 0.609 ± 0.059
EGRRGVGGAWEG | 0.6573 ± 0.0037
EGSSGVLESRAG | 0.671 ± 0.026
EGSSVITFAGGG | 0.664 ± 0.046
EGTSYWDPSVPG | 0.741 ± 0.045
EHERQQYKNYNK | 0.671 ± 0.057
EIERTKNEGEEG | 0.67 ± 0.058
EIRKGGVRSTSN | 0.668 ± 0.13
EIVTQQKIMDKK | 0.711 ± 0.012
EKCIGKRGLTKY | 0.703 ± 0.022
EKERKIKEREVT | 0.631 ± 0.018
EKGSKTGNKPQT | 0.688 ± 0.048
EKIKKQITRTRR | 0.6652 ± 0.0053
EKIVHEGAHGWR | 0.681 ± 0.02
EKKKKRNKVNQN | 0.709 ± 0.064
EKKYKKKYKKKE | 0.641 ± 0.031
EKMILEIKRGRI | 0.688 ± 0.036
EKNDKEYKRSIS | 0.665 ± 0.06
EKNKRMEVKAKR | 0.67 ± 0.0096
EKNTNVDHNRNF | 0.7384 ± 0.0061
EKPKEGKNETKK | 0.734 ± 0.042
EKQKNLPQEAKQ | 0.7 ± 0.02

Sequence | protein stability index
EKRINLKKRGKT | 0.669 ± 0.064
ELCAFLFYPFVV | 0.599 ± 0.039
ELEGKIMNITVW | 0.661 ± 0.024
ELGNREGVGYEV | 0.781 ± 0.17
ELKRVCVHRTER | 0.7 ± 0.025
ELLHMAAGLGGR | 0.643 ± 0.015
ELNSGLLRSKET | 0.661 ± 0.0095
ELQVSGNTIIVV | 0.529 ± 0.032
ELRSAIRAVPFL | 0.737 ± 0.028
ELRSVLDRDVRV | 0.725 ± 0.049
ELWCLGVLGGDV | 0.708 ± 0.0089
ENCPPETLNRGE | 0.686 ± 0.081
ENLFLRRVWFCR | 0.686 ± 0.022
ENLRKLGIALWG | 0.682 ± 0.14
ENQGEKQKKKKR | 0.685 ± 0.013
ENRGIEITGKRS | 0.727 ± 0.022
ENVAKKEKITKK | 0.694 ± 0.02
EPAAHCGERRHL | 0.608 ± 0.064
EPAFMRRFMSNK | 0.657 ± 0.016
EPKLPPCPTPPS | 0.721 ± 0.012
EPRWPCNVAGIV | 0.706 ± 0.13
EQKYHTCEDAQK | 0.685 ± 0.1
EQQTPIKKNKQR | 0.826 ± 0.036
EQSERGIQQGTN | 0.633 ± 0.02
EQWSAHSMLSGR | 0.705 ± 0.026

Sequence | protein stability index
EREKERNKNGKY | 0.671 ± 0.013
ERKHIISKGMNN | 0.608 ± 0.041
ERKRPLAKKTKN | 0.643 ± 0.055
ERNSKKKRKRRL | 0.701 ± 0.08
ERTDEKTAEKER | 0.7012 ± 0.0049
ERYLCVGIAHGP | 0.706 ± 0.02
ESAGESRREFGG | 0.693 ± 0.011
ESAGPSIYKLVT | 0.638 ± 0.0092
ESDSEITYNKKQ | 0.729 ± 0.012
ESGDKYKRRTQP | 0.699 ± 0.052
ESIQAASANDSQ | 0.688 ± 0.043
ESIQGRHRMSCL | 0.6912 ± 0.006
ESLLFICAHALV | 0.566 ± 0.017
ESLVIIIAGSMF | 0.567 ± 0.15
ESLVSFTRPFSR | 0.748 ± 0.026
ESNFTLIRKIRT | 0.64 ± 0.0065
ESQSLLLFQEPS | 0.696 ± 0.057
ESRARRRQGGKR | 0.738 ± 0.015
ESRVTNKQSYQA | 0.678 ± 0.03
ETALKVGSVGGV | 0.71037 ± 6.9e-05
ETCIWDGRPIAS | 0.723 ± 0.085
ETGTRELIRQWV | 0.718 ± 0.02
EVGFPGRSWGAG | 0.689 ± 0.07
EVGWMPFYLVGL | 0.67 ± 0.11
EVKKTFCFSKDI | 0.672 ± 0.011

Sequence | protein stability index
EVPGALISLHFY | 0.654 ± 0.038
EVRCVFTGWHSS | 0.785 ± 0.096
EVSRCRTVPVWL | 0.662 ± 0.07
EVTGGRGGEGGV | 0.694 ± 0.046
EVVGGSESRELG | 0.6569 ± 0.0027
EVWGGFGGGGGS | 0.72 ± 0.027
EWCVRKATRDIE | 0.659 ± 0.014
EWGAGGVVVGGW | 0.718 ± 0.043
EWLCLRGCCVLY | 0.667 ± 0.015
EWLRYNKDKRKI | 0.774 ± 0.14
EWQAGSDRRFYW | 0.618 ± 0.013
EWSGWVGKCGRG | 0.6644 ± 0.0059
EYCSSCLADLSP | 0.69 ± 0.074
EYYRYLPVLIRL | 0.467 ± 0.055
FAARASLSPLTR | 0.855 ± 0.2
FAFSDFHLVVFF | 0.684 ± 0.011
FALRDLHLSCFA | 0.577 ± 0.012
FANKLYSVFMDN | 0.655 ± 0.13
FAPTRAAPVTVS | 0.5712 ± 0.0057
FAPVPPRATFSH | 0.691 ± 0.022
FASFLSIPTRFS | 0.712 ± 0.02
FCCFFFPALCCL | 0.493 ± 0.024
FCCVETRRCVRL | 0.717 ± 0.16
